To fix the notation:
T1: human IL-23 (human, UniProt P29460 23-328; Q9NPF7 20-189)
T1 construct: Heterodimer p40/p19; Whole entries as named; also called IL-23 Human; recombinant human IL-23
T1 sequence 1: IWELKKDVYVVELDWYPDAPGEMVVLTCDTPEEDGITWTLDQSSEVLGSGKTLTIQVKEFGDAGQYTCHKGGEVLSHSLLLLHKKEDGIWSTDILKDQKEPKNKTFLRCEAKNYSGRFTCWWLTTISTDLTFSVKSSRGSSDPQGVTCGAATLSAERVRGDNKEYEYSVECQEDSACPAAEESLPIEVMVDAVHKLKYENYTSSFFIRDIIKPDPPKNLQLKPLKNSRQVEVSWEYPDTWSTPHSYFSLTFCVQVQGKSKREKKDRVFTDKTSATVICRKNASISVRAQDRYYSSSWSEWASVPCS
T1 sequence 2: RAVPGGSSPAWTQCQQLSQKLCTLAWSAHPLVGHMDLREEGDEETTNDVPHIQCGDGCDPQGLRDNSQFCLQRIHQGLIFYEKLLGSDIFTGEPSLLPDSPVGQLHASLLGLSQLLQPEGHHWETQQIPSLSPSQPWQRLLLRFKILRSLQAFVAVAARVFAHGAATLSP

T2: recombinant human TL1A (human, UniProt O95150 71-251)
T2 construct: homotrimer; biotinylated for SPR capture; the ELISA paragraphs say only 'recombinant TL1A'; also called TNFSF15
T2 chain: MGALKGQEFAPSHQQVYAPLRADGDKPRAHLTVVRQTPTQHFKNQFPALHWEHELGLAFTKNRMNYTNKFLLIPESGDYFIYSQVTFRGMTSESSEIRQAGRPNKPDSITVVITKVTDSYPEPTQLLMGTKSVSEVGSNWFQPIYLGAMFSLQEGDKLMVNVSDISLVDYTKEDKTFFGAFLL

T3: recombinant human TL1A (human, UniProt O95150 71-251)
T3 construct: Homotrimeric cytokine; biotinylated with Sulfo-NHS-biotin where captured for SPR, coated unlabelled in ELISA, soluble in bioassays; also called TNFSF15
T3 chain: T2 chain

B1: p40TL1A-0024 (bispecific antibody, human IgG1, kappa)
heavy 1: EVQLVQSGAEVKKPGESLKISCKGSGYSFTTYWLGWVRQMPGKGLDWIGIMSPVDSDIRYSPSFQGQVTMSVDKSITTAYLQWNSLKASDTAMYYCARRRPGQGYFDFWGQGTLVTVSSASTKGPSVFPLAPSSKSTSGGTAALGCLVKDYFPEPVTVSWNSGALTSGVHTFPAVLQSSGLYSLSSVVTVPSSSLGTQTYICNVNHKPSNTKVDKKVEPKSCDKTHTCPPCPAPEAAGAPSVFLFPPKPKDTLMISRTPEVTCVVVDVSHEDPEVKFNWYVDGVEVHNAKTKPREEQYNSTYRVVSVLTVLHQDWLNGKEYKCKVSNKALPAPIEKTISKAKGQPREPQVYTLPPSREEMTKNQVSLTCLVKGFYPSDIAVEWESNGQPENNYKTTPPVLDSDGSFFLYSRLTVDKSRWQQGNVFSCSVLHEALHSHYTQKSLSLSPGK
light 1: not shown
heavy 2: QVQLVQSGAEVKKPGASVKVSCKASGYDYTYYGISWVRQAPGQGLEWMGWISTYNTGTHYAPSLQGRVTMTTDTSTSTAYMELRSLRSDDTAVYYCARESYYGSGAFRGGMDVWGQGTTVTVSSASTKGPSVFPLAPSSKSTSGGTAALGCLVKDYFPEPVTVSWNSGALTSGVHTFPAVLQSSGLYSLSSVVTVPSSSLGTQTYICNVNHKPSNTKVDKKVEPKSCDKTHTCPPCPAPEAAGAPSVFLFPPKPKDTLMISRTPEVTCVVVDVSHEDPEVKFNWYVDGVEVHNAKTKPREEQYNSTYRVVSVLTVLHQDWLNGKEYKCKVSNKALPAPIEKTISKAKGQPREPQVYTLPPSREEMTKNQVSLTCEVKGFYPSDIAVEWESNGQPENNYKTTPPVLDSDGSFFLYSKLTVDKSRWQQGNVFSCSVLHEALHSHYTQKSLSLSPGK
light 2: not shown
notes: dual cell, E/R, LS
B2: p40TL1A-0001 (bispecific antibody)
heavy 1: B1 heavy 1 with D223R, P230R
light 1: not shown
heavy 2: B1 heavy 2 with D228E, P235E
light 2: not shown
notes: dual cell, EEE/RRR, LS
B3: p40TL1A-0021 (bispecific antibody)
heavy 1: B1 heavy 1 with D223R
light 1: not shown
heavy 2: B1 heavy 2 with D228E
light 2: not shown
notes: dual cell, EE/RR, LS
B4: p40TL1A-0018 (bispecific antibody, human IgG1, kappa)
heavy 1: B1 heavy 1 with T368W, R411K
light 1: not shown
heavy 2: B1 heavy 2 with T373S, E375A, Y414V
light 2: not shown
notes: dual cell, KiH without Cys in CH3, LS
B5: TL1A-0045 (antibody, human IgG1, kappa, V domains shown)
VH: QVQLVQSGAEVKKPGASVKVSCKASGYDFTYYGISWVRQAPGQGLEWMGWISTYNGNTHYARMLQGRVTMTRDTSTSTVYMELSSLRSEDTAVYYCARENYYGSGAYRGGMDVWGQGTTVTVSS
VL: EIVLTQSPATLSLSPGERATLSCRASQSVSSYLAWYQQKPGQAPRLLIYDASNRATGIPARFSGSGSGTDFTLTISSLEPEDFAVYYCQQRSNWPWTFGQGTKVEIKR
notes: IgG1/kappa; VH graft on IGHV1-46*01
B6: TL1A-0047 (antibody, human IgG1, kappa, V domains shown)
VH: EVQLVESGGGLVQPGGSLRLSCAASGYDFTYYGISWVRQAPGKGLEWVAWISTYNGNTHYARMLQGRFTISRDNAKNSLYLQMNSLRAEDTAVYYCARENYYGSGAYRGGMDVWGQGTTVTVSS
VL: B5 VL
notes: IgG1/kappa; VH graft on IGHV3-7*01
B7: TL1A-0052 (antibody, human IgG1, kappa, V domains shown)
VH: B5 VH with T76I, V79A, S85R, E89D
VL: DIQMTQSPSSLSASVGDRVTITCRASQSVSSYLAWYQQKPGKAPKLLIYDASNRATGVPSRFSGSGSGTDFTLTISSLQPEDFATYYCQQRSNWPWTFGQGTKVEIKR
notes: IgG1/kappa; IGHV1-2*02 / IGKV1-39*01 grafts
B8: TL1A-0056 (antibody, human IgG1, kappa, V domains shown)
VH: B5 VH with T76I, V79A, S85R, E89D
VL: B5 VL with L4M, E79Q
notes: IgG1/kappa; IGHV1-2*02 / IGKV3D-7*01 grafts
B9: TL1A-0042 (antibody, human IgG1, kappa, V domains shown)
VH: B5 VH with R72T, S77R, V79A, S84R, E89D
VL: B7 VL
notes: TL1A-0002 heavy chain with light chain CDRs grafted on IGKV1-39*01 (DPK9)
B10: TL1A-0053 (antibody, human IgG1, kappa, V domains shown)
VH: B5 VH
VL: B5 VL with L4M, E79Q
notes: IgG1/kappa; IGHV1-46*01 / IGKV3D-7*01 grafts
B11: TL1A-0048 (antibody, human IgG1, kappa, V domains shown)
VH: B5 VH with T76I, V79A, S85R, E89D
VL: B5 VL
notes: IgG1/kappa; VH graft on IGHV1-2*02
B12: TL1A-0049 (antibody, human IgG1, kappa, V domains shown)
VH: B5 VH
VL: B7 VL
notes: IgG1/kappa; IGHV1-46*01 / IGKV1-39*01 grafts
B13: TL1A-0055 (antibody, human IgG1, kappa, V domains shown)
VH: B6 VH
VL: B5 VL with L4M, E79Q
notes: IgG1/kappa; IGHV3-7*01 / IGKV3D-7*01 grafts
B14: TL1A-0051 (antibody, human IgG1, kappa, V domains shown)
VH: B6 VH
VL: B7 VL
notes: IgG1/kappa; IGHV3-7*01 / IGKV1-39*01 grafts

Substitutions are numbered along the chain they refer to.

The first assay concerns the target T1, human IL-23. In words: SPR, bispecific held on captured biotinylated human TL1A, then human IL-23 injected (simultaneous binding). How it is done:
SPR was used to determine if the bispecific variants could simultaneously bind TL1A and IL-23, containing the p40 domain. For this analysis, a semi-quantitative SPR method was developed using Biacore™ T200 (GE Healthcare) instrumentation. […] The bispecific was injected for 90 seconds at a concentration of 20 μg/m L, a flow rate of 50 μL/minute, and captured to a level of approximately 40-150 RU. Next, recombinant human IL-23 was injected for 60 seconds and a flow rate of 50 μL/minute at a concentration range of 0.37-15 nM.
(In general: SPR reads the build-up and loss of mass on a sensor chip optically.)
As usually defined, the Kd is the free concentration of one partner at which half of the binding sites on the other are occupied at equilibrium, for simple one-to-one binding. One may read the koff as the rate constant with which the complex falls apart. What is called kon is a measure of how fast the partners come together. With B1, the dissociation constant (Kd) stood at 0.107 nM, the dissociation rate constant (koff) was 0.000571 s⁻¹ and the kon came to 5.32e+06 M⁻¹ s⁻¹.
As for B2, the Kd worked out at 0.09 nM, the koff is 0.000584 s⁻¹ and the kon was determined as 5.98e+06 M⁻¹ s⁻¹.
Regarding B3, the dissociation constant (Kd) turned out to be 0.0738 nM, the koff is 0.000524 s⁻¹ and the association rate constant (kon) stood at 7.11e+06 M⁻¹ s⁻¹.
For B4 the same measures were 0.0944 nM, 0.000521 s⁻¹ and 5.51e+06 M⁻¹ s⁻¹.

In another assay the target is T2, recombinant human TL1A. In words: competition ELISA vs bio-TL1A-0002. How it is done:
For this competition ELISA assay procedure, 96-well high binding plates (Corning, product number 3590) were coated with 1 μg/mL recombinant TL1A in 100 μL/well in Phospate Buffered Saline (PBS) overnight at 4° C. Plates were then blocked in PBS+0.02% casein solution and washed with PBS+0.05% Tween-20 following standard ELISA protocol. […] Plates were washed with PBS+0.05% Tween-20 following standard ELISA protocol, and Streptavidin-HRP (Southern Biotech, product number 7100-05) diluted to 1:10,000 in assay buffer was added to plates and incubated for 25-30 minutes at room temperature. Next, the plates were washed with PBS+0.05% Tween-20 following standard ELISA protocol, and then TMB substrate (BioFX Laboratories, catalog number TMBW-0100-01) was added to plates. Reactions were stopped after approximately 5 minutes by adding 0.18 M ortho-phosphoric acid to each well and absorbance was read at 450 nm.
A general note: In an ELISA, binding on a coated surface is turned into a signal by an enzyme label.
The IC50 is the point on the concentration scale where inhibition reaches its midpoint. For the molecule B5, the “Bioactivity relative to TL1A-0002” value amounted to 1.2 fold and the IC50 is 5.5 nM.
The matching figures for B6: 1.2 fold and 5.3 nM.
Regarding B7, the “Bioactivity relative to TL1A-0002” value was 0.8 fold and the IC50 is 3.5 nM.
For B8, the “Bioactivity relative to TL1A-0002” value amounted to 0.8 fold and the IC50 worked out at 3.8 nM.
Consider B9, for which the “Bioactivity relative to TL1A-0002” value is 0.9 fold and the IC50 was determined as 4.2 nM.
Take B10: the “Bioactivity relative to TL1A-0002” value was found to be 1 fold and the 50% inhibitory concentration (IC50) worked out at 4.5 nM.
Consider B11, for which the “Bioactivity relative to TL1A-0002” value came out at 0.9 fold and the 50% inhibitory concentration (IC50) was found to be 4.1 nM.
For B12 the same measures were 1.1 fold and 4.9 nM.
For B13, the “Bioactivity relative to TL1A-0002” value came to 1 fold and the IC50 worked out at 4.4 nM.
On to B14, for which the “Bioactivity relative to TL1A-0002” value amounted to 1 fold and the half-inhibitory concentration (IC50) was found to be 4.5 nM.

A further assay addresses T3, recombinant human TL1A. As to the kind of experiment: SPR 37 C, biotinylated human TL1A captured, bispecific injected. How it is done:
(§1) SPR was utilized to determine if the affinity constants of each arm of the bispecific variants binding human IL-23, containing the p40 subunit, and human TL1A were the same for each bispecific approach. For the analysis of the p40 binding arm, kinetic assays were conducted at 37° C. using a collection rate of 10 Hz on a Biacore™ 8 K+ instrument (GE Healthcare). An anti-human IgG antibody (anti-human Fc, GE Healthcare, 22-0648-88) was amine coupled to all four flow cells of a carboxymethylated dextran coated sensor chip (GE Healthcare,) using the manufacturer's recommended protocol. […] For the analysis of the TL1A binding arm, kinetic assays were conducted at 37° C. using a collection rate of 10 Hz on a Biacore™ T200 instrument (GE Healthcare).
With B1, the Kd is 0.273 nM, the koff is 5.99e-05 s⁻¹ and the kon turned out to be 219000 M⁻¹ s⁻¹.
As for B2, the equilibrium dissociation constant (Kd) worked out at 0.167 nM, the dissociation rate constant (koff) was 4.28e-05 s⁻¹ and the kon amounted to 256000 M⁻¹ s⁻¹.
For B3, the Kd was found to be 0.183 nM, the koff turned out to be 5.6e-05 s⁻¹ and the association rate constant (kon) amounted to 307000 M⁻¹ s⁻¹.
Take B4: the Kd turned out to be 0.217 nM, the koff worked out at 4.87e-05 s⁻¹ and the kon is 224000 M⁻¹ s⁻¹.

For the next assay, the target named is T1, human IL-23. In words: SPR 37 C, bispecific captured by anti-human Fc, human IL-23 injected. How it is done: as §1
Regarding B1, binding was characterised by a dissociation constant (Kd) of 0.9 nM, the koff came to 0.00157 s⁻¹ and the kon came out at 1.75e+06 M⁻¹ s⁻¹.
Regarding B2, binding was put at a Kd of 0.901 nM, the off-rate constant (koff) amounted to 0.00156 s⁻¹ and the kon was 1.73e+06 M⁻¹ s⁻¹.
B3 displayed a Kd of 0.859 nM, a dissociation rate constant (koff) of 0.00152 s⁻¹ and a kon of 1.77e+06 M⁻¹ s⁻¹.
Consider B4, for which the equilibrium dissociation constant (Kd) was found to be 0.659 nM, the koff was found to be 0.00121 s⁻¹ and the kon stood at 1.83e+06 M⁻¹ s⁻¹.

(Values after patent US20240059799A1 (Pfizer, published 2024).)
